Source: article PMC4154664

Substrate: CCCCCCCCCCCCCC(=O)SCCNC(=O)CCNC(=O)[C@H](O)C(C)(C)COP(=O)(O)OP(=O)(O)OC[C@H]1O[C@@H](n2cnc3c(N)ncnc32)[C@H](O)[C@@H]1OP(=O)(O)O
Test: purified protein

B1: B. malayi NMT (BmNMT, myristoyl-CoA:protein N-myristoyltransferase) (Brugia malayi) (protein)
chain: MKEPPAGNIKLDDEDEKMMAAGNSKMDQNNDKENDAGDESIQNVTGRNSPTAVIDLKELTESTLMKKFEMLTVGGTSAAKHITEAQRHKYLFWDTQPVPKINEMVTENRAIEPPLDISEVREEPFSLPDPFCWCDIEINSVKELTELYTLLTENYVEDDDNMFRFDYSPEFLLWALKAPGWMKNWHCGVRAKSNGKLIAFISAIPSVIRVYDKQIKMVEINFLCVHKKLRSKRVAPVLIREITRRVNREGIFQAVFTAGVVLPKPIATCRYWHRSLNPKKLIEVKFSHLSRKMTMQRTLKLYKLPDHPRTANLVPMKKCHIDGAYGLLQCYLKKFDLSPQFTRADFEHFFMPREDVIYSYVALNEEDSKVSDLISFYSLPSSVMHHPQYKSIRAAYSFYNVATSVTLKQLINDALILARNCGFDVFNALDLMDNKEILEDLKFGIGDGNLQYYLYNWKCPDIIPEKIGLVLQ
Km: 4.4 µM

B2: C. elegans NMT (CeNMT, myristoyl-CoA:protein N-myristoyltransferase) (Caenorhabditis elegans) (protein)
chain: MSHGHSHDGAPCGGHHGDDGAGGSRPSVNDVQALVDQLRLAGVDVSNMPNIPTAPRDMDEARSKSFQFWSTQPVPQMDETVPADVNCAIEENIALDKVRAEPFSLPAGFRWSNVDLSDEEQLNELYNLLTRNYVEDDDSMFRFDYSADFLKWALQVPGFRPEWHCGVRADSNNRLLAFIGAVPQTVRVYDKTVNMVEINFLCVHKNLRSRRVAPVLIREITRRVNVTGIFQAAFTAGIVIPKPVSVCRYYHRSLNPRKLIDVRFSHLSAKMTMARTIKLYKLPEETATRNLREMKSTDVPQVFKLLTTSLKQYSLAPVYNSEEELAHALVPKKGVVYSYVAENQNGKITDFVSFYSLPSTVMGHTTHKTIYAAYLYYYVAGSVTPKQLINDSLILANREKFDVFNALDLMHNEKIFSDLKFGKGDGNLQYYLYNWKCADMKPSQIGLVLQ
Km: 12.2 µM
